Experimental data as given in the supplement of paper PMC10567573.
± gives the standard deviation.

Experiment: protein stability index of a GFP-peptide fusion (GPS, HEK-293T) (PSI 1-6); higher = more stable
Details: c terminus: a fixed tail appended
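Note: 24-mer peptide tiles fused after GFP, lentivirally expressed, FACS-sorted into six equal bins by GFP/DsRed ratio, decoded by Illumina sequencing, PSI is the read-weighted mean bin number.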

Sequence | protein stability index (treatment: DMSO) | protein stability index (treatment: MLN4924 1 uM, 8 h)
RQNLKLLVEETSCQQNMIQELIET [CEP70] | 3.42 ± 0.16 | 3.43 ± 0.45
RQRLLADLLHNVSQNIAAETRAED [DFFB] | 4.1 ± 0.36 | 4.09 ± 0.44
RQVKHYRIFRLPNNWYYISPRLTF [SLA] | 2.43 ± 0.52 | 2.14 ± 0.069
RRFIQSCPIIRIPNRFLRGHRPPP [KLHDC10] | 2.67 ± 0.18 | 2.73 ± 0.43
RRSSSKCIHDHHCGSQLSSTKGSR [NETO1] | 3.74 ± 0.33 | 3.92 ± 0.36
RRVRLELWDTSGQGRFCTIFRSYS [RAB40C] | 2.35 ± 0.5 | 1.99 ± 0.29
RSEEAVQVLIKHSADVNARDKNWQ [ANKRD44] | 4.17 ± 0.22 | 4.44 ± 0.33
RSEFTLMAKRIGKDLSNTFAKLEK [STX5] | 2.51 ± 0.33 | 2.31 ± 0.33
RSLANGPNAGEQPGQVAGADFESE [EID1] | 5.22 ± 0.24 | 5.74 ± 0.18
RSLQDLARIAIRGTIKKIIHQETV [PCMTD2] | 2.39 ± 0.32 | 2.52 ± 0.65
RSTCVYVCALSALPAGPLPAPLLV [PLEKHN1] | 3.18 ± 1.1 | 2.88 ± 0.71
RTPLIKLSPKKTWEGFIGGFFSTV [CDS1] | 2.03 ± 0.16 | 1.88 ± 0.37
RTSRKFLACRLTPDMETKLLFMTS [INTS3] | 2.49 ± 0.37 | 2.33 ± 0.39
RTVGFEEQASAFQEQEIDGKSLLL [SAMD13] | 4.55 ± 0.2 | 4.85 ± 0.18
RVMKVEDREGPSSSKLVTKKAPQP [HDAC6] | 4.93 ± 0.26 | 5.14 ± 0.077
RVQVLKNEVRRGSPVLLGWVEQAY [TIAF1] | 2.37 ± 0.18 | 2.21 ± 0.37
RVRFGQQKRYQDWFQRQYLSTPDS [INTS3] | 2.85 ± 0.23 | 3.07 ± 0.14
RVYLATDDPSLLKEAKTKYPNYEF [FUT8] | 2.95 ± 0.36 | 2.9 ± 0.28
RWDMADNEQVLTTEHEKKQKLETD [YJU2B] | 5.39 ± 0.32 | 5.37 ± 0.21
RYDPQTNEWRMVASMSKRRCGVGV [KLHL20] | 2.71 ± 0.16 | 2.75 ± 0.3
RYVFEAVIRWIAHDTEIRKVHMKD [GAN] | 2.74 ± 0.84 | 2.4 ± 0.65
SALAPSVFKQAKDKVSDGVTKSPE [MAP2] | 5.44 ± 0.22 | 5.44 ± 0.18
SALEGRADTTTGSAAGPPLSEDDK [EHMT1] | 5.14 ± 0.83 | 5.38 ± 0.43

Sequence | protein stability index (treatment: DMSO) | protein stability index (treatment: MLN4924 1 uM, 8 h)
SALQSLLQHLIGLSNLTHVLYPVP [PRAME] | 3.36 ± 0.28 | 3.2 ± 0.16
SARIGQNCSIGPNVSLGPGVVVED [GMPPB] | 4.49 ± 0.33 | 4.58 ± 0.23
SARWLEVLRTYLELVLCVLVSIRN [FBXO33] | 2.33 ± 0.31 | 2.16 ± 0.21
SCMASLWTAPLVMRTTNLDNRCKL [CDC25A] | 2.33 ± 0.084 | 2.43 ± 0.15
SCRRKQEDDRDGLLAEREQEEAIA [TMEM106C] | 5.45 ± 0.33 | 5.42 ± 0.091
SDDSDEDEPCAISGKWTFQRDSKR [DLC1] | 5 ± 0.13 | 4.83 ± 0.069
SDKIGSTIDDTISKFRRKDREDSP [CLINT1] | 5.1 ± 0.4 | 5.21 ± 0.3
SDQVKISEEALRADGFGDNPFYHC [SAT2] | 4.16 ± 0.28 | 4.25 ± 0.24
SDSEANGFAERRIDKFGFIVGSQG [TBC1D10A] | 4.14 ± 0.35 | 4.07 ± 0.34
SDSVIMTGSYNNFFRMFDRNTKRD [PPP2R2B] | 3.55 ± 0.18 | 3.63 ± 0.19
SDVICDFPFQAMVQFHRHHGQEGS [GMPPB] | 3.12 ± 0.32 | 3.19 ± 0.28
SEEAPGGTELIQTPLASSTDHQTP [HDAC6] | 5.49 ± 0.4 | 5.51 ± 0.34
SEIEMAKAQRDYELKKAAYDIEVN [FLOT1] | 4.89 ± 0.29 | 5.02 ± 0.17
SEMAEDLCKIGSERSLVLDRLASN [IKZF1] | 4.56 ± 0.38 | 4.73 ± 0.2
SFGGEWSAPDTMKRYSMYLTPKGG [TRIM29] | 3.09 ± 0.51 | 3.09 ± 0.48
SFLRDHSYATEADIISTVEFNHTG [PPP2R2B] | 3.65 ± 0.15 | 3.58 ± 0.19
SFQGCMAQLFMDHLFAGAEVILLV [OR4A15] | 3.28 ± 1.2 | 3.18 ± 0.91
SFVCWSRGFMEMNGRGELVESLKR [AUP1] | 2.36 ± 0.51 | 2.2 ± 0.27
SGLEKEVQRLTSRAARDYKIQNHG [FCHSD1] | 3.89 ± 0.16 | 3.61 ± 0.38
SGSAVSTAPQQKPIGKISKNKKKK [SRPK2] | 4.77 ± 0.43 | 5.07 ± 0.2
SGSGSGPGCGSVPGSGSGPGPGSG [SPAG8] | 5.08 ± 0.24 | 5.12 ± 0.12
SGTDAEETILNAFKMLDPDGKGKI [MYL5] | 4.51 ± 0.18 | 4.31 ± 0.17
SKIDHYVLEYRRTNFEGPPRLKED [FSD1] | 3.52 ± 0.15 | 3.63 ± 0.087

Sequence | protein stability index (treatment: DMSO) | protein stability index (treatment: MLN4924 1 uM, 8 h)
SKKTFQITKQGDGVDFLSWFLNAL [USP39] | 2.35 ± 0.16 | 2.29 ± 0.24
SLAETECRYATQLQQIQGLIGGLE [KRT15] | 2.83 ± 0.24 | 2.91 ± 0.32
SLCSLLESQSTSLRGSYNSLHDGS [LURAP1L] | 2.8 ± 0.11 | 2.87 ± 0.41
SLELPKAIQDQLPRLQQLLKTLEE [FANCE] | 2.66 ± 0.32 | 2.85 ± 0.24
SLEPFRPQQAPQDDGSQDPEVLDR [PWWP2B] | 5.51 ± 0.16 | 5.53 ± 0.14
SLFSYGLRESIASYLSLTSEDNTS [SLA] | 2.49 ± 0.19 | 2.61 ± 0.22
SLGGIRACTLTVFPPEETTPSPSR [KLHL13] | 3.63 ± 0.21 | 3.77 ± 0.17
SLPASSYSQDPVYANGGLNYSYRG [NOL4L] | 3.44 ± 0.12 | 3.62 ± 0.15
SLRDKVLQLQKGSDTEAQCEVMQE [INTS3] | 5.11 ± 0.23 | 5.08 ± 0.2
SLSLRLPHQPVTAITRVSDRFSGE [SMTNL2] | 3.8 ± 0.28 | 4.16 ± 0.1
SLTRSNRHRLRWHSFQSSHRPSLN [DLC1] | 3.05 ± 0.14 | 3.41 ± 0.31
SNAMLVGDKLKFLSMLLTLKCEMN [ACSBG2] | 2.66 ± 0.62 | 2.52 ± 0.052
SNCCFTFSGHFLCTSSWDKNLKIW [WDR88] | 2.22 ± 0.97 | 2.3 ± 0.4
SNCLGIRDFAETHNCVDLMQAAEV [KLHL12] | 4.05 ± 0.64 | 3.68 ± 0.59
SNDGARRQFEFYLEEMILPLMVAS [BTBD10] | 2.25 ± 0.078 | 2.2 ± 0.073
SNFNYFYHRETEGEEQSQYMHVGS [KCNA3] | 3.89 ± 0.08 | 3.88 ± 0.48
SPNRSLPSPGVLCGSARPKPYDPP [ATF4] | 3.67 ± 0.19 | 3.72 ± 0.26
SPWDQEERPAQRDCSFPGLPRHQD [TRAF3IP2] | 5.48 ± 0.23 | 5.36 ± 0.38
SQKVLGLNEDPLKWWSDRLALFPL [ZBED1] | – | 2.14 ± 0.63
SQPAVELVSGSQSALGPPPAASNS [CLINT1] | 5.04 ± 0.31 | 5.21 ± 0.33
SRIAKGGVDHTKMSLHGASGGHER [BTBD10] | 4.5 ± 0.19 | 4.43 ± 0.14
SRKGELTPLPETGYWRVRLWNGDK [TRIM39] | 2.63 ± 0.057 | 2.58 ± 0.36
SRVTDPVGDIVSFMHSFEEKYGRA [FAF2] | 3.34 ± 0.25 | 3.59 ± 0.36

Sequence | protein stability index (treatment: DMSO) | protein stability index (treatment: MLN4924 1 uM, 8 h)
SSCYPLIPSTPEEVSADDETPNPP [MAGEA10] | 5.46 ± 0.31 | 5.44 ± 0.27
SSEVDELIHKADEVTLSEAGSTAG [PALM] | 5.65 ± 0.15 | 5.58 ± 0.16
SSSSLGNKLQTLSPSHKGIAAPHA [ZC2HC1A] | 3.81 ± 0.22 | 3.97 ± 0.26
SSSTPLEDEEPQEPNRLETGEAGE [RTN2] | 5.51 ± 0.34 | 5.56 ± 0.3
SSTSCLMPSKLFAGLVHVKQCIVA [CRYL1] | 2.44 ± 0.31 | 2.11 ± 0.25
STFSSGPSDKMKWCLRVNPKGLDD [SPOPL] | 2.73 ± 0.5 | 3 ± 0.47
STTEWNDETLYQEFNGLKKMNPKL [CHIT1] | 4.2 ± 0.2 | 4.54 ± 0.2
STVISSMPCLLMELRRDSSESQLA [C18orf25] | 3.02 ± 0.13 | 3.13 ± 0.33
SVMAIERCIGVTKPIFHSTKITSK [PTGFR] | 2.71 ± 0.16 | 2.98 ± 0.49
SVSQDFPGSNLNLLTNNSGTPKDH [ETS2] | 4.8 ± 0.38 | 4.83 ± 0.27
SVTGYSFASDGDSGTCSPLRHSFQ [ADD1] | 3.28 ± 0.25 | 3.11 ± 0.36
SYGPVILVVLVVAVVASSVNSYYS [TOR1AIP2] | 3.57 ± 0.3 | 2.85 ± 0.095
SYKYTSRYVLKAGQTVTIWAANAG [LMNB1] | 2.24 ± 0.25 | 1.87 ± 0.25
SYLLKSGADKEILTTKGEMPVQLT [ANKRD40] | 3.46 ± 0.38 | 3.55 ± 0.19
TACKPVIRVPSVPPVPCVPSVPCT [KRT36] | 3.15 ± 0.28 | 3.27 ± 0.2
TAEKRKRLGELFNPYYDPLQWKSS [CHGB] | 2.54 ± 0.17 | 2.93 ± 0.34
TAIKSIEFARKGSCFLINTADRII [RBBP5] | 2.6 ± 0.22 | 2.75 ± 0.78
TALVTVSSEEFEDKWFRKIKDHFC [C8orf76] | 2.33 ± 0.16 | 2.54 ± 0.25
TARMEMLIEELYAFMPARSQDPKK [CBY2] | 2.66 ± 0.39 | 2.94 ± 0.27
TASKAIIEKEYQPHVIVSTTGPNP [ADD1] | 4.47 ± 0.21 | 4.65 ± 0.16
TATFAVHFMVLSKSGPGDGFFSSA [POMT2] | 2.84 ± 0.36 | 2.93 ± 0.51
